# Tested on: IgE (full length human IgE, h-IgE) (Homo sapiens), P01854-1
# Assay: filter
# Details: 2'-deoxy at 6, 8, 9, 16, 18, 19, 20, 21, deoxyinosine at 16, 18, 20 (written as G), T24 = 3' inverted dT], dot-blot, DPBS with Mg and Ca, 0.1 mg/mL BSA, room temperature, 30 min
# Chain of IgE (full length human IgE, h-IgE) (Homo sapiens), P01854-1 (P01854 other isoform, or with tags, fused parts or gaps): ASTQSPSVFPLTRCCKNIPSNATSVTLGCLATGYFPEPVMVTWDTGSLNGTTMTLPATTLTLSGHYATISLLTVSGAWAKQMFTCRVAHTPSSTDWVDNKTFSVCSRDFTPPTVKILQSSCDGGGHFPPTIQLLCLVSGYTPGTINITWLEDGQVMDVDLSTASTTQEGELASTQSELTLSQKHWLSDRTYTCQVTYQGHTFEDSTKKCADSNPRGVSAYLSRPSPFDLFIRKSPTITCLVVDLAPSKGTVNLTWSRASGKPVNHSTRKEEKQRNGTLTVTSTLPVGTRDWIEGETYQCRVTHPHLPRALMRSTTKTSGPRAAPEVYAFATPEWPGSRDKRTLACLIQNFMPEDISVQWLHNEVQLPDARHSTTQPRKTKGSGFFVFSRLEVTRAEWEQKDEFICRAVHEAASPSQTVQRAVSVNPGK
sequence,measurement,setting,value
AGCCUGGGGACCCAUGGGGGGCU [ARC1666],Kd,"2'-OMe at A1 G2 C3 C4 U5 G7 A10 C11 C12 C13 A14 U15 G17 C22 U23, 2'-deoxy at G6 G8 G9 I16 I18 G19 I20 G21, n = deoxyinosine, PS between 8-9, 15-16, 16-17, 18-19, 20-21, 3' 3T cap (inverted dT) [2'-OMe at 1-5, 7, 10-15, 17, 22, 23",0.035 nM
AGCCUGGGGACCCAUGGGGGGCU [ARC2982],Kd,"as ARC1666 (2'-OMe/2'-deoxy/deoxyinosine, 3' 3T cap) with PS between 8-9, 15-16, 16-17, 17-18, 18-19, 20-21 [2'-OMe at 1-5, 7, 10-15, 17, 22, 23, PS between 8-9, 15-16, 16-17, 17-18, 18-19, 20-21",0.03 nM
AGCCUGGGGACCCAUGGGGGGCU [ARC2983],Kd,"as ARC1666 (2'-OMe/2'-deoxy/deoxyinosine, 3' 3T cap) with PS between 8-9, 15-16, 16-17, 18-19, 19-20, 20-21 [2'-OMe at 1-5, 7, 10-15, 17, 22, 23, PS between 8-9, 15-16, 16-17, 18-19, 19-20, 20-21",0.02 nM
AGCCUGGGGACCCAUGGGGGGCU [ARC3901],Kd,"as ARC1666 (2'-OMe/2'-deoxy/deoxyinosine, 3' 3T cap) with PS between 8-9, 15-16, 16-17, 17-18, 18-19, 19-20, 20-21 [2'-OMe at 1-5, 7, 10-15, 17, 22, 23, PS between 8-9, 15-16, 16-17, 17-18, 18-19, 19-20, 20-21",0.13 nM

# From US20090075342
